Data: US8414660B2, “Haloferax volcanii laccase and variants and fragments thereof” (University of Florida Research Foundation, Inc., priority 2009, dated 2013)
Values joined by “and” are separate entries in the source; they are usually repeats but may differ in a detail not shown here. Equal values may be shown once.

What was measured:
[1] = Thermostability of LccA, residual SGZ oxidizing activity after pre-incubation; format: physicochemical
Experimental: (§1) FIG. 6D-Thermostability of LccA.
LccA was fully active after 1 h at 55° C. and 5 h at 50° C., with a half-live of inactivation at 50° C. of 31.5 h (FIG. 6D). […] (Fernandes et al., 2007). Likewise, the recently studied recombinant RL 5 laccase from rumen metagenome has maximal activity at 60° C. and is fully stable at this temperature for 200 min (Beloqui et al., 2006). […] (Martins et al., 2002).

[2] = Laccase activity assay, oxidation of SGZ (syringaldazine); settings: for Km: read-out: Km, SGZ
Experimental: LccA (51 μg·ml^−1) activity was assayed at different temperatures (22° to 70° C.) in T buffer with 185 mM NaCl using SGZ (1 mM) as the substrate. […] LccA activity was assayed with SGZ (●) from pH 6 to 11 and with ABTS (◯) from pH 3 to 8 at 45° C. using following buffers: 100 mM sodium acetate for pH 3 to 6, 25 mM Tris-HCl for pH 7 to 10, and 25 mM glycine-NaOH for pH 11. Activity is expressed as percent relative to oxidation of ABTS at pH 6. […] Purified enzyme (50.6 μg·ml^−1) was pre-incubated in T buffer supplemented with 185 mM NaCl at temperatures from 37° to 70° C. for up to 60 h, as indicated. […] Activity is presented as percent relative to incubation on ice (37° C. (●), 45° C. (▪), 50° C. (▴), 55° C. (♦), 60° C. (◯), 65° C. (□) and 70° C. (Δ)); FIG. 6E-Salt tolerance of LccA protein. Purified enzyme (16.5 μg·ml^−1) was pre-incubated for 30 min in T buffer at pH 8.4 supplemented with different concentrations of NaCl (0 to 1.4 M) as indicated. Samples were diluted to a final concentration 4.12 μg·ml^−1 protein and 185 mM NaCl in T buffer and assayed for SGZ oxidizing activity under standard conditions. Residual activity was calculated as percent relative to incubation at 185 mM NaCl. […] Enzyme (7.5 μg·ml^−1) was incubated in T buffer with 185 mM NaCl in the presence and absence of 25% (v/v) solvent (DMSO, DMF, ethanol and methanol) at room temperature for 90 min (white bar), 3 h (grey bar) and 24 h (black bar). […] Activity is calculated as percent relative to incubation without solvent.
Enzyme activity was determined by change in absorbance, in triplicate, by UV/Visible-spectroscopy using a BioTek Synergy HT multi-detection microplate reader with a 96-well plate. Oxidation of substrate was monitored by absorbance increase (ABTS at 420 nm with ε=36,000 M^−1 cm^−1; SGZ at 526 nm with ε=65,000 M^−1 cm^−1; DMP at 468 nm with ε=49,000 M^−1 cm^−1; guaiacol at 436 nm with ε=26,600 M^−1 cm^−1; ferrous ammonium sulfate at 315 nm with ε=2,200 M^−1 cm^−1) or decrease (bilirubin at 440 nm with ε=56,300 M^−1 cm^−1). Standard assay conditions were 185 mM NaCl at 45° C. with the following buffers and substrate concentrations: 100 mM sodium acetate buffer at pH 6.0 for ABTS (at 5 mM), DMP (at 2 mM) and guaiacol (at 5 mM); 25 mM Tris-HCl buffer at pH 8.4 for SGZ (at 1 mM); and 200 mM Tris-HCl buffer at pH 8.4 for bilirubin (0.45 mM). Copper sulfate (1 mM) was included for assay of DMP oxidation. Oxidation of ferrous ammonium sulphate (1 mM) was monitored at 315 nm (ε=2,200 M^−1 cm^−1) with and without salt (185 mM NaCl) in 100 mM MES (morpholineethanesulfonic acid) buffer at pH 5 as well as 25 mM Tris-HCl buffer at pH 7.0 and 8.4. One unit of enzyme activity is defined as the amount of enzyme that oxidizes 1 μmol of substrate per min at standard conditions. […] Kinetic parameters (Km, Vmax, and kcat) were determined using the Michaelis-Menten equation. […] All assays and protein purifications were performed at least in triplicate.
To further evaluate the catalytic properties of LccA, the temperature, pH and salt optima of the purified enzyme were determined using SGZ and/or ABTS as substrates.

[3] = Laccase activity assay, oxidation of ABTS; format: biochemical
Description: as §1

[4] = Salt tolerance of LccA, residual SGZ oxidizing activity after pre-incubation in NaCl; format: physicochemical; settings: 100 mM to at least 1.4 M NaCl, FIG. 6E
[5] = Laccase activity assay, oxidation of DMP with copper sulfate; format: biochemical; settings: US02-purified LccA, standard conditions, CuSO4 added
[6] = Effect of mixed organo-solvents on LccA stability, residual SGZ oxidizing activity; format: physicochemical; settings: 185 mM NaCl
Experimental: as §1
Commonly used water miscible organo-solvents (i.e., methanol, ethanol, dimethyl sulfoxide or DMSO and dimethylformamide or DMF) were examined for their compatibility with LccA stability and activity. […] LccA was relatively stable in all solvents examined, retaining nearly 75% of its activity after 24 h incubation in methanol or ethanol and over 50% of its activity after incubation in DMSO or DMF. The influence of water-miscible cosolvents on enzyme activity and stability has been examined for several fungal laccases (Rodakiewicz-Nowak et al., 1999; Robles et al., 2002; Milstein et al., 1993; Luterek et al., 1998; Cantarella et al., 2003). These prior studies coupled with the current findings reveal a wide-variety of laccases, including LccA, are stable and/or can support catalysis and conversion of phenolic substrates in water-organic mixed solvents. Since most of the substrates and mediators of laccases are insoluble or poorly soluble in water and the degree of polymerization of phenoxyl radicals is higher in aqueous media (Milstein et al., 1993), solvent stability is an important feature to consider in optimizing this group of enzymes.

[7] = Oxidation of ferrous ammonium sulfate; format: biochemical; settings: presence or absence of copper supplementation
[8] = Oxidation of bilirubin; format: biochemical; settings: US02-purified LccA
[9] = Delignification of steam exploded sugarcane bagasse, total phenol by Folin-Ciocalteau
Experimental: Prior to enzymatic treatment, sugarcane bagasse was treated with 1% (v/v) phosphoric acid and steam exploded in a shotgun reactor at 190° C. for 10 min. The resultant bagasse was adjusted to pH 8.4 with 5M NaOH.
Stream exploded bagasse was delignified using the laccase, LccA, from H. volcanii US02. LccA was prepared for the delignification reaction by concentrating H. volcanii US02 culture supernatant 5-fold with ethanol precipitation and dialyzing the concentrate against 25 mM Tris buffer pH 8.4 supplemented with 200 mM NaCl (T buffer) with regenerated cellulose dialysis tubing (3500 Da molecular weight cut off; Thermo Scientific SnakeSkin Pleated Dialysis Tubing).
Bagasse samples were treated with LccA in a rotary shaker at 150 rpm with similar doses of heat killed LccA enzyme (HKE) as a control. Periodically clear supernatant obtained by centrifugation of small fraction of hydrolysate was used for total phenol estimation by Folin-Ciocalteau method (Singleton and Rossi, 1965). Optimal conditions were determined to be treatment with 3 Uml^1 LccA at 37° C. in T buffer at pH 8.4 for 3-6 h.

[10] = Oxidation of guaiacol; format: biochemical; settings: presence or absence of copper supplementation
[11] = LccA from culture broth of Hfx. volcanii BS01
[12] = LccA from culture broth of Hfx. volcanii US02

pH optimum, SGZ oxidization ([2]; 45° C., FIG. 6C): 8.4 | Activity relative to temperature optimum ([2]; 55° C.): 67% | Activity relative to temperature optimum ([2]; 60° C.): 48% | Activity relative to temperature optimum ([2]; 65° C.): 35% | Activity relative to temperature optimum ([2]; 70° C.): 15% | Salt concentration for optimal activity ([2]; NaCl or KCl in T buffer at 45° C., FIG. 6B): ~200 mM | Activity in KCl higher than in NaCl ([2]; at ~200 mM salt): 1.5 fold | Activity relative to temperature optimum ([2]; room temperature (25° C.)): ~75%
B1: LccA: Haloferax volcanii laccase of the multicopper oxidase family, SEQ ID NO: 2, secreted glycoprotein purified from culture broth of strain US02 (protein, listed as Haloferax volcanii)
chain: MTDWSRRRFLQTGAALGIAGTLPQTTTEVSAASPTLEKFVQPLPIPSVREPDGQRDGADAYEIAVTEFTQQLHPDLPETTVWGFDGSYPGPTIEADAGSPVHVRFDNSGLPSEHLFPVDDRLGGTTAENHPGYDGPVPEVRTVTHFHGLELDPANDGQSDMWTSPGGVEGPRFDSAWQELPMEQGRTTSTYHDHTLGITRLNAYAGLLGLYSITTDAERELGLPSGDYDIPLLLQDKEFNDDGSLHYPEEFVSAFLGDTAVVNGAVWPYVEVEPRRYRFRILNGANHRSFDLQLESESGSGVPTMYQFAPGHGFLESVVPIGPNGDLDSLLLTPFERGELVVDFSDHAGETLTLANGADMGPELTDLVEFRVSDPSTPPEDASADPTSLSLPTPASYDESDARVTREMTLGTEVRNGLITHTLNGHVFGDEDAPVYPQLGATEIWELQNESGGRHPIHLHLVTFRVIGRGPDGTQPPDPNELGPKDTVRVDPGERVRILVTFEGYTGQFPWHCHMLEHEDNKMMIPFVVENPVADYANEENVVDATGLTDAVGDWRNETLETEVLLEVIDQWRSGDEVA
modifications: glycosylated
Activity retained after incubation ([1]; 37° C., 2½ days): nearly all of its original activity | Activity after pre-incubation ([1]; 1 h at 55° C.): fully active | Activity after pre-incubation ([1]; 5 h at 50° C.): fully active | kcat, SGZ [2, 11]: 19.4 s⁻¹ | kcat, SGZ [2, 12]: 21.7 s⁻¹ | Specific activity, SGZ oxidation ([2]; LccA purified from H. volcanii US02, fraction F2 (upper fraction), MonoQ 10/10): F2, 6.7 U · mg^−1 | Specific activity, SGZ oxidation ([2]; improved purification protocol from H. volcanii US02, MonoQ 10/10 pH 8.4): 51.5 U·mg^−1 | Specific activity, SGZ oxidation ([2]; purified from culture broth of Hfx. volcanii SB01 (C-terminal StrepII tag), final MonoQ 10/10 pH 8.4): 1.3 U·mg^−1 and 1.34 U·mg^−1 | Km [2, 11]: 67 µM | Km [2, 12]: 35 µM | pH optimum, ABTS oxidation ([3]; 45° C., FIG. 6C): 6.0 | Km [3, 11]: 700 µM | kcat, ABTS [3, 11]: 10.0 s⁻¹ | Km [3, 12]: 671 µM | kcat, ABTS [3, 12]: 9.9 s⁻¹ | Specific activity, ABTS oxidation ([3]; US02-purified LccA, standard conditions): 6.1±0.39 U·mg^−1 | Activity retained after incubation in NaCl [4]: nearly all of its original activity | Specific activity, DMP oxidation [5]: 12.6±1.1 U·mg^−1 | Activity retained after incubation in solvent ([6]; 25% (v/v) DMSO or DMF): over 50% | Activity retained after incubation in solvent ([6]; 24 h, 25% (v/v) methanol or ethanol): ~75% | Oxidation of Fe^2+ (ferrous ammonium sulphate) [7]: did not oxidize | Km [8]: 236 µM | kcat, bilirubin [8]: 29 s⁻¹ | Specific activity, bilirubin oxidation ([8]; standard conditions): 25.5±1 U·mg^−1 | Phenol content after treatment ([9]; 3 h of treatment, from 1473±10 before): 1160±26 mg phenol per liter | Reduction in the phenol content ([9]; 3 h of treatment, ~1 g dry weight bagasse in 15 ml T buffer): 21% | Reduction in the phenol content ([9]; bagasse (~1 g dry weight equivalents) in 50 ml of T buffer): 38-43% | Oxidation of guaiacol [10]: did not oxidize
